Assay results published in PMC3274520.

Columns and labels:
[1] = target: full-length MNV-1 NS1-2, bacterial two-hybrid fusions (pBT-NS1-2full and pTRG-NS1-2full) (Murine norovirus (MNV-1)); test: two-hybrid; BacterioMatch II bacterial two-hybrid; NS1-2 fused to λcI (pBT) and to the RNA polymerase α-subunit (pTRG); selective medium with 3 mM 3-AT
[2] = target: truncated MNV-1 NS1-2 fragment (minus the transmembrane domain), recombinant from E. coli (Murine norovirus (MNV-1)); test: SEC + other: sucrose gradient sedimentation; Stokes radius from the calibrated Superose12 column and sedimentation coefficient from 5-20% sucrose gradients (16 h, 130,000×g, 4°C) joined in the simplified Svedberg equation; monomer and dimer fractions of the size exclusion column
[3] = target: truncated MNV-1 NS1-2, bacterial two-hybrid fusions (pBT-NS1-2trunc and pTRG-NS1-2trunc) (Murine norovirus (MNV-1)); test: two-hybrid; BacterioMatch II bacterial two-hybrid; NS1-2 fused to λcI (pBT) and to the RNA polymerase α-subunit (pTRG); selective medium with 3 mM 3-AT

With “full-length MNV-1 NS1-2, bacterial two-hybrid fusions (pBT-NS1-2full and pTRG-NS1-2full) (natural protein)” the percent positive (transcriptional activation) [1] was 26%.

“truncated MNV-1 NS1-2 fragment (minus the transmembrane domain), recombinant from E. coli (domain or fragment)” gave a stoichiometry N [2] of 2.

Substance “truncated MNV-1 NS1-2, bacterial two-hybrid fusions (pBT-NS1-2trunc and pTRG-NS1-2trunc) (domain or fragment)” has a percent positive (transcriptional activation) [3] of 38%.
